According to patent publication US20170129921A1:

Molecular target: Human C5a receptor 2 (human) (UniProt Q9P296)
Assay: 125I-C5a displacement, SPA on Flp-In CHO-C5a2 membranes

Human C5a receptor 2 (human), sequence (Q9P296 whole entry): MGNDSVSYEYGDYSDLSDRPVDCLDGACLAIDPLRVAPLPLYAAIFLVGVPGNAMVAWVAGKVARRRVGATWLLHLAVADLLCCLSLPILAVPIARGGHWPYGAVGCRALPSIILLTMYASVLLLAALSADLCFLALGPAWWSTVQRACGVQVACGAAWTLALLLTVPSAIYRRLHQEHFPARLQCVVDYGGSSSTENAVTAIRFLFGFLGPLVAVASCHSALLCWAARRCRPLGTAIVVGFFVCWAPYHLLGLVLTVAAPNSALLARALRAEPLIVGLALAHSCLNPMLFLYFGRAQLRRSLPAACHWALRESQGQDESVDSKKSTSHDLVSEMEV
Human isolated C3a, P01024 672-748 (ligand; other documents disagree on this pair), sequence (P01024 672-748): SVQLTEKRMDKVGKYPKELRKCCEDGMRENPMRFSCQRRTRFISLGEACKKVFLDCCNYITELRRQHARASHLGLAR
Human isolated C3a-des Arg, P01024 672-747 (ligand; other documents disagree on this pair), sequence (P01024 672-747 limits assumed): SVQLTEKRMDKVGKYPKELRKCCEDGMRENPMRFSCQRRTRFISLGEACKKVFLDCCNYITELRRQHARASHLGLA

Substance	Ki [nM]
Human isolated C3a, P01024 672-748 (ligand; other documents disagree on this pair)	> 1000
Human isolated C3a-des Arg, P01024 672-747 (ligand; other documents disagree on this pair)	> 1000
